Experiment [1] deals with T1, monkey CD22 protein (ACROBiosystems, SI2-R52Ha) (monkey (rhesus monkey in paragraph 148), UniProt H9G1X2 18-686).
T1 construct: extracellular domain; also called monkey CD22-ECD; monkey CD22-ECD-His
T1 sequence: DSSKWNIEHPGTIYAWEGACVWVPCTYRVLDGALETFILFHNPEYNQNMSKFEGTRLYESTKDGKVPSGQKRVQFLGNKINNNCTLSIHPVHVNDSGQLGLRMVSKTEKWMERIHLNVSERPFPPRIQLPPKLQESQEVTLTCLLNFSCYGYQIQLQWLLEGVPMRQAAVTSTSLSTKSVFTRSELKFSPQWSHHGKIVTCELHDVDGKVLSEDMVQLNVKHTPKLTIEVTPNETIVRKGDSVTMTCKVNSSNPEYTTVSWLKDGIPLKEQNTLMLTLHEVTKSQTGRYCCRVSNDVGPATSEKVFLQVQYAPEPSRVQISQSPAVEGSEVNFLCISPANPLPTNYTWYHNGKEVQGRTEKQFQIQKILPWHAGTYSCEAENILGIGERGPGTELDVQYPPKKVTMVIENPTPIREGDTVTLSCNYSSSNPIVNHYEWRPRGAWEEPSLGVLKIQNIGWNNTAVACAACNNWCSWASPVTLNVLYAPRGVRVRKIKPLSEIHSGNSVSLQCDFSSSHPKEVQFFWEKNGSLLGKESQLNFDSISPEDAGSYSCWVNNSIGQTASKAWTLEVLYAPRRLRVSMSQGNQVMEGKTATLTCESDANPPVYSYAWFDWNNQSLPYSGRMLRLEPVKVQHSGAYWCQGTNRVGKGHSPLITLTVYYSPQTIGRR
The experiment in a line: ELISA, monkey CD22-ECD-His coated. In a few lines: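 Read-out is TMB absorbance after a 30 min room-temperature development stopped with 1.0 N HCl. It reflects chimeric antibody bound to plate-coated CD22 (2 μg/mL), detected with an HRP-labelled secondary antibody. Antibody and secondary incubations each ran 2 h at 37° C.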

Experiment [2] has as its target T2, human CD22-ECD-His protein (human, UniProt P20273 20-687).
T2 construct: Made in house in HEK293E; also called hCD22-ECD-His; recombinant human CD22-ECD His protein; not shown: His tag
T2 sequence: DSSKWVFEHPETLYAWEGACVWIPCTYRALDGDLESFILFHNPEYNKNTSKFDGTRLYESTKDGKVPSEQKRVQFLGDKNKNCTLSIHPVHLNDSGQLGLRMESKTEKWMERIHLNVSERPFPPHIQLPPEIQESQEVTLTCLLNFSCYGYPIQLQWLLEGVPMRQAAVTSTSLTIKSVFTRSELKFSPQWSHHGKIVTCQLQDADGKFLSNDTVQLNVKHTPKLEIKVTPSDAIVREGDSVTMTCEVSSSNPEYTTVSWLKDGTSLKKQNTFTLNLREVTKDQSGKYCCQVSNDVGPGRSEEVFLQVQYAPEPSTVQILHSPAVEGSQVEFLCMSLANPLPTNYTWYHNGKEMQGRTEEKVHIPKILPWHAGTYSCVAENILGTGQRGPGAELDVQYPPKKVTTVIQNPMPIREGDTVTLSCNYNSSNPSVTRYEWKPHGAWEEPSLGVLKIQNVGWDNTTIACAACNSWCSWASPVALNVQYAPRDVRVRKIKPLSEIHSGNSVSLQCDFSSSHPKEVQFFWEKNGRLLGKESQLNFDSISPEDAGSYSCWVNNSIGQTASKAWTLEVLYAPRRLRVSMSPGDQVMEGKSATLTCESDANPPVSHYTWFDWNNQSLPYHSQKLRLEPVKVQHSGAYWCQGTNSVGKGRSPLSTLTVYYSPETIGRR
The experiment is described as follows: ELISA, human CD22-ECD-His coated. The essentials: (§1)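 Coat: CD22-ECD-His 2 μg/mL PBS, 4 °C o/n. Block PBS/2% BSA 2 h RT. Ab 2 h 37 °C; HRP 2° 2 h 37 °C; TMB 30 min RT, 1.0 N HCl stop.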

Experiment [3] concerns the target T2, human CD22-ECD-His protein. The experiment in a line: ELISA, Ab 0.0001 nM. The essentials: as §1
A further experiment deals with T3, human CD22 domain1-4-His (human, UniProt P20273 20-425).
T3 construct: also called hCD22 domain1-4-His; not shown: His tag
T3 sequence: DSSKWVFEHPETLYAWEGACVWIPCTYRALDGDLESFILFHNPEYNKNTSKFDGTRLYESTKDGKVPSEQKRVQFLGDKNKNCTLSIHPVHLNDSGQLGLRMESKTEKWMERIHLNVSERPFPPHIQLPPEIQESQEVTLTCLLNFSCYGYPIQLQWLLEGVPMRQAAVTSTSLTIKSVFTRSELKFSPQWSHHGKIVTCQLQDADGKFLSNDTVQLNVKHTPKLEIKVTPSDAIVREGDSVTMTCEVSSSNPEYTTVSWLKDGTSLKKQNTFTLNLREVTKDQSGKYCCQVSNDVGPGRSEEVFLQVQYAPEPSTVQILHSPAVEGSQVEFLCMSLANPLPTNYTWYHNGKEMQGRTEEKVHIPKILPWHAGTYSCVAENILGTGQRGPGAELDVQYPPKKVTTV
The experiment in a line: ELISA, human CD22 domain1-4-His coated.

Experiment [4] concerns the target T2, human CD22-ECD-His protein. The experiment in a line: ELISA, Ab 0.001 nM. In a few lines: as §1

The text below walks through data of patent US20240084003A1 (SIMCERE ZAIMING PHARMACEUTICAL, published 2024).

B1: HA22-hIgG1 (antibody, V domains shown)
VH: EVQLVESGGGLVKPGGSLKLSCAASGFAFSIYDMSWVRQTPEKCLEWVAYISSGGGTTYYPDTVKGRFTISRDNAKNTLYLQMSSLKSEDTAMYYCARHSGYGTHWGVLFAYWGQGTLVTVSA
VL: DIQMTQTTSSLSASLGDRVTISCRASQDISNYLNWYQQKPDGTVKLLIYYTSILHSGVPSRFSGSGSGTDYSLTISNLEQEDFATYFCQQGNTLPWTFGCGTKLEIKR
With B1, the “EC50 (read off the curve)” value in experiment [1] is about 0.05 nM; in experiment [2] it was about 0.02 nM; with human CD22 domain1-4-His, about 0.06 nM. The OD450 in experiment [3] worked out at 0.33 OD450; in experiment [4] it was 0.89 OD450.

B2: F1.280.1 (antibody, human IgG1, kappa, V domains shown)
VH: QIQLVQSGPELKKPGETVKISCKASGYTFTTYGMSWVKQTPGKGLTWMGWINTDSGVPTYADDFKRRFAFSLEASATTAYLQINNLKNEDTATYFCARGGPDYWGQGTTLTVSS
VL: DILLTQSPATLSVTPGETVSLSCRASQSIYKNLHWYHQKSHRSPRLLIKYASDSISGIPSRFTGSGSGTNFTLSINSVKPEDEGIYYCLQGYIVPLTFGAGTKLELKR
notes: Human-murine chimeric IgG1, kappa
Take B2: the results for the “EC50 (read off the curve)” value (in experiment [2]; with human CD22 domain1-4-His) were about 0.02 nM and about 0.05 nM, respectively. The OD450 worked out at 0.24 OD450 in experiment [3] and 0.81 OD450 in experiment [4].

B3: F1.224.1 (antibody, human IgG1, kappa, V domains shown)
VH: EVLLHQSGPELVKPGASVKISCKASGYTFTDFNMDWVRQRHGQSLEWIGDVNPNNGGTIYNQKFKGKATLTVDKSSSTVYMDLRSLTSDDTAVYYCVRLGTSDYGEAWFISWGQGTVVTVSA
VL: DIVLTQSPASLAVSLGQRATISCRASQSVSTPRYSFMHWYQQKPGQPPKLLIKYASNLESGFPARFTGSGSGTDFTLNIHPVEEEDTAAYYCQQSWAIPWTFGGGTKLEIKR
notes: as for B2
With B3, the results for the “EC50 (read off the curve)” value (in experiment [1]; in experiment [2]; in the experiment with human CD22 domain1-4-His) were about 0.04 nM, about 0.02 nM and about 0.03 nM, respectively. Besides, the results for the OD450 in experiment [3] and in experiment [4] were 0.34 OD450 and 1.08 OD450, respectively.

B4: F2.180.16 (antibody, human IgG1, lambda, V domains shown)
VH: EVKLVESGGGLVLPGGSLKISCAASGFTFSDYYMYWIRQTPDKRLEWVAYISNTGYSTFYPDSVKGRFTVSRDNAKNTLYLQMSRLQSEDTAMYYCARHGILYAMDYWGQGTSVTVSS
VL: QPVLTQSSSASFSLGASAKLTCTLSSQYSTYTIGWYQQQPLKPPKYVMELKHDGSRHTGDGIPDRFSGSSSGADRYLSISNIQPEDEATYICGVGDTIKEQFMYVFGGGTKVTVLG
notes: Human-murine chimeric IgG1, lambda
On to B4, for which the binding result (in experiment [1]; with human CD22 domain1-4-His) was “no binding (tested: 100 nM)” each time. In addition, the OD450 was 0.31 OD450 in experiment [3] and 0.61 OD450 in experiment [4].

B5: F1.105.11 (antibody, human IgG1, kappa, V domains shown)
VH: EVQLQQSGPVLVKPGASVKMSCKASGYTFSDYFMNWVKQSHGKSLEWIGIINSYSGGTSYNQKFKGKATLTVDKSSSTAYMELNSLTSEDSAVYYCARWMDYWGQGTSVTVSS
VL: DVQITQSPSYLAASPGETITINCRTSESISKHLAWYQEKPGKTNKLLIYSGSTLQSGIPSRFSGSGSGTDFTLTISSLEPEDFAMYYCQQHNEYPWTFGGGTKLEIKR
notes: as for B2
On to B5, for which the “EC50 (read off the curve)” value is about 0.1 nM in experiment [1] and about 0.04 nM in experiment [2]. The results for the OD450 in experiment [3] and in experiment [4] were 0.14 OD450 and 0.53 OD450, respectively. Besides, the binding result in the experiment with human CD22 domain1-4-His is listed as “no binding (tested: 100 nM)”.

B6: F1.257.3 (antibody, human IgG1, kappa, V domains shown)
VH: QVQLQQSGPELARPGASVKLSCKASGYTFTSYGISWVKQRTGQDLEWIGEIYPKLGTTYYNEKFKDKATLTTDRSSSTAYMALRSLTSEDSAVYFCACPHYYATRGGDYWGQGTTLTVSS
VL: EIVLTQSPATLSVTPGDSVTFSCRASQSISNHLHWYQQKSHESPRLLIRYASQSISGIPSRFSGSGSGTDFTLSLSSVETEDFGVYFCQQSHSWPYTFGGGTKLEIAR
notes: as for B2
On to B6, for which the “EC50 (read off the curve)” value in experiment [2] was about 0.06 nM; in the experiment with human CD22 domain1-4-His, about 0.3 nM. The results for the OD450 in experiment [3] and in experiment [4] were 0.28 OD450 and 0.6 OD450, respectively.
